Target: MSH2-MSH3 (purified heterodimer) (human, UniProt P43246 1-934; P20585 1-1137)
Experiment: native gel or EMSA

MSH2-MSH3 (purified heterodimer), sequence (P43246 whole entry, chain 1 of 2): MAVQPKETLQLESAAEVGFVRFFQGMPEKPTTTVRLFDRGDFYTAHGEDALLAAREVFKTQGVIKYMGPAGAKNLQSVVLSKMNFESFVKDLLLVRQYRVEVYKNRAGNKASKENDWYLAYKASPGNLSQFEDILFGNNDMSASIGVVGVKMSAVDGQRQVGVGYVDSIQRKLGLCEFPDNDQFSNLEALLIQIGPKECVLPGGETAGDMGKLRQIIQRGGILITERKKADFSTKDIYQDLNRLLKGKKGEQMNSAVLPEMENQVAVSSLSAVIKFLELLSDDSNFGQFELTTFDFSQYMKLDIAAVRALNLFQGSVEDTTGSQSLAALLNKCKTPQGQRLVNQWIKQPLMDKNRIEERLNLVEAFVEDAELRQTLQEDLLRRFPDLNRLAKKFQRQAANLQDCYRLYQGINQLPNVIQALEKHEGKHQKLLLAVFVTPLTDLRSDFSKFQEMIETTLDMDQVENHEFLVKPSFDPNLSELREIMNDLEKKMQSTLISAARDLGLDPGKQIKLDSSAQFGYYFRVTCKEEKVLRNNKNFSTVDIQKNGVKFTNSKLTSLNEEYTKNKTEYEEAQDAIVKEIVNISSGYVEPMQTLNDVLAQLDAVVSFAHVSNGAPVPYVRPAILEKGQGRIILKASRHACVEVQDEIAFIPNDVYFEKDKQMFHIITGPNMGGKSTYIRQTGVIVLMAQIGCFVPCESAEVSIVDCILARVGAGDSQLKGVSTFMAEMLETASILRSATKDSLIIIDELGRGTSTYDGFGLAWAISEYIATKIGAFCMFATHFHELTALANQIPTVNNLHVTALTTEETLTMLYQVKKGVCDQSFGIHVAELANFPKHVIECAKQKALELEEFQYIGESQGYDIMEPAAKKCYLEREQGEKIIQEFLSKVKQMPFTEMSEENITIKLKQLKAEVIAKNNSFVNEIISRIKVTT
MSH2-MSH3 (purified heterodimer), sequence (P20585 whole entry, chain 2 of 2): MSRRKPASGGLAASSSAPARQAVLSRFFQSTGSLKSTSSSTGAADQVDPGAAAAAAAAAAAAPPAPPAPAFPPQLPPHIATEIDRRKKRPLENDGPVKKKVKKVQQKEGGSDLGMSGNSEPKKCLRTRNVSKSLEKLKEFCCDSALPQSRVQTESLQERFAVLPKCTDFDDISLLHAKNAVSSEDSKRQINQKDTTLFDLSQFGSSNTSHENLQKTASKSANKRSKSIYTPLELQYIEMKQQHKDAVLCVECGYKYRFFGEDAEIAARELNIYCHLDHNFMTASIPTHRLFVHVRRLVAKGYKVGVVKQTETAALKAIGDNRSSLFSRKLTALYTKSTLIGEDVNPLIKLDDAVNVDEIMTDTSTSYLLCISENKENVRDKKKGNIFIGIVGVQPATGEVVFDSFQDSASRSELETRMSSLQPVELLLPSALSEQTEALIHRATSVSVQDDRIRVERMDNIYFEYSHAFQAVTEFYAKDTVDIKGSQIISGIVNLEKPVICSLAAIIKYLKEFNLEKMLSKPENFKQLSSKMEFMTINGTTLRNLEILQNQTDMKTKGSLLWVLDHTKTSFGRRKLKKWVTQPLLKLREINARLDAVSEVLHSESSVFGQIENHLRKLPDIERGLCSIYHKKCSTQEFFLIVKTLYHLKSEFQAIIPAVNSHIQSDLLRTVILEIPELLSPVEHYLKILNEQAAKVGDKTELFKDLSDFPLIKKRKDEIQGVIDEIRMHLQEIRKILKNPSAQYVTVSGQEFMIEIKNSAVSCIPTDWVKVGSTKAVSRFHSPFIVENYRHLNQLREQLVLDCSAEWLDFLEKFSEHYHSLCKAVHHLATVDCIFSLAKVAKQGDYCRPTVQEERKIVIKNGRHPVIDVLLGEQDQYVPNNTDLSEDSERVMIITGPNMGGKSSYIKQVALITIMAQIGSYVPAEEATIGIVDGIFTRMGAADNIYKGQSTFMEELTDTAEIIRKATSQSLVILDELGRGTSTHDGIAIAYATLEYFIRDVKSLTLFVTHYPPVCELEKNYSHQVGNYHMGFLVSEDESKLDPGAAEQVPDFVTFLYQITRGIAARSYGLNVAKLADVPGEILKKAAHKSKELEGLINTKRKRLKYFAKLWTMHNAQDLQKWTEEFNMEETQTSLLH

binding result: binds
B1: SMARCAD1 (purified) (enzyme, human, UniProt Q9H4L7 1-1026, looked up)
chain: MNLFNLDRFRFEKRNKIEEAPEATPQPSQPGPSSPISLSAEEENAEGEVSRANTPDSDITEKTEDSSVPETPDNERKASISYFKNQRGIQYIDLSSDSEDVVSPNCSNTVQEKTFNKDTVIIVSEPSEDEESQGLPTMARRNDDISELEDLSELEDLKDAKLQTLKELFPQRSDNDLLKLIESTSTMDGAIAAALLMFGDAGGGPRKRKLSSSSEPYEEDEFNDDQSIKKTRLDHGEESNESAESSSNWEKQESIVLKLQKEFPNFDKQELREVLKEHEWMYTEALESLKVFAEDQDMQYVSQSEVPNGKEVSSRSQNYPKNATKTKLKQKFSMKAQNGFNKKRKKNVFNPKRVVEDSEYDSGSDVGSSLDEDYSSGEEVMEDGYKGKILHFLQDASIGELTLIPQCSQKKAQKITELRPFNSWEALFTKMSKTNGLSEDLIWHCKTLIQERDVVIRLMNKCEDISNKLTKQVTMLTGNGGGWNIEQPSILNQSLSLKPYQKVGLNWLALVHKHGLNGILADEMGLGKTIQAIAFLAYLYQEGNNGPHLIVVPASTIDNWLREVNLWCPTLKVLCYYGSQEERKQIRFNIHSRYEDYNVIVTTYNCAISSSDDRSLFRRLKLNYAIFDEGHMLKNMGSIRYQHLMTINANNRLLLTGTPVQNNLLELMSLLNFVMPHMFSSSTSEIRRMFSSKTKSADEQSIYEKERIAHAKQIIKPFILRRVKEEVLKQLPPKKDRIELCAMSEKQEQLYLGLFNRLKKSINNLEKNTEMCNVMMQLRKMANHPLLHRQYYTAEKLKEMSQLMLKEPTHCEANPDLIFEDMEVMTDFELHVLCKQYRHINNFQLDMDLILDSGKFRVLGCILSELKQKGDRVVLFSQFTMMLDILEVLLKHHQHRYLRLDGKTQISERIHLIDEFNTDMDIFVFLLSTKAGGLGINLTSANVVILHDIDCNPYNDKQAEDRCHRVGQTKEVLVIKLISQGTIEESMLKINQQKLKLEQDMTTVDEGDEGSMPADIATLLKTSMGL
